{"source": "patent US10047131B2", "about": "“Peptides and combination of peptides for use in immunotherapy against ovarian cancer and other cancers” (immatics biotechnologies GmbH, priority 2015, dated 2018)", "data": [{"target": "HLA-A*02:01 (Homo sapiens, UniProt P04439, D140Y/D185E/D98H/E176V/E277Q/G131W/G231S/I119V/I121R/I166T/I218V/L300P/L318F/N151K/N90K/P208A/P217A/Q86G/Q94H/R138H/R169H/T345S)", "assay": "MHC binding assay (UV-ligand exchange, ELISA of exchange yield)", "settings": "binding to HLA-A*02:01, UV-ligand exchange", "source_text": "Candidate peptides for T cell based therapies according to the present invention were further tested for their MHC binding capacity (affinity). The individual peptide-MHC complexes were produced by UV-ligand exchange, where a UV-sensitive peptide is cleaved upon UV-irradiation, and exchanged with the peptide of interest as analyzed. Only peptide candidates that can effectively bind and stabilize the peptide-receptive MHC molecules prevent dissociation of the MHC complexes. To determine the yield of the exchange reaction, an ELISA was performed based on the detection of the light chain (p2m) of stabilized MHC complexes. The assay was performed as generally described in Rodenko et al. (Rodenko et al., 2006).\n96 well MAXISorp plates (NUNC) were coated over night with 2 μg/ml streptavidin in PBS at room temperature, washed 4× and blocked for 1 h at 37° C. in 2% BSA containing blocking buffer. […] Peptide-MHC monomers of the UV-exchange reaction were diluted 100 fold in blocking buffer. Samples were incubated for 1h at 37° C., washed four times, incubated with 2 μg/ml HRP conjugated anti-β2m for 1h at 37° C., washed again and detected with TMB solution that is stopped with […]. Absorption was measured at 450 nm. Candidate peptides that show a high exchange yield (preferably higher than 50%, most preferred higher than 75%) are generally preferred for a generation and production of antibodies or fragments thereof, and/or T cell receptors or fragments thereof, as they show sufficient avidity to the MHC molecules and prevent dissociation of the MHC complexes.", "values": [{"substance": "60 (SLTIDGIYYV; listed as Homo sapiens) [compound 60]", "Peptide exchange (MHC class I binding score, peptide exchange yield)": "“++++” (≥75% = ++++)"}, {"substance": "61 (FLQGYQLHL; listed as Homo sapiens) [compound 61]", "Peptide exchange (MHC class I binding score, peptide exchange yield)": "“++++” (≥75% = ++++)"}, {"substance": "62 (VLLDVSAGQLLM; listed as Homo sapiens) [compound 62]", "Peptide exchange (MHC class I binding score, peptide exchange yield)": "“++++” (≥75% = ++++)"}, {"substance": "63 (YLLPSGGSVTL; listed as Homo sapiens) [compound 63]", "Peptide exchange (MHC class I binding score, peptide exchange yield)": "“++” (≥20% = ++)"}, {"substance": "64 (YAAPGGLIGV; listed as Homo sapiens) [compound 64]", "Peptide exchange (MHC class I binding score, peptide exchange yield)": "“++” (≥20% = ++)"}, {"substance": "66 (FLDENIGGVAV; listed as Homo sapiens) [compound 66]", "Peptide exchange (MHC class I binding score, peptide exchange yield)": "“+++” (≥50 = +++)"}, {"substance": "67 (TLLAEALVTV; listed as Homo sapiens) [compound 67]", "Peptide exchange (MHC class I binding score, peptide exchange yield)": "“+++” (≥50 = +++)"}, {"substance": "68 (SLMELPRGLFL; listed as Homo sapiens) [compound 68]", "Peptide exchange (MHC class I binding score, peptide exchange yield)": "“++++” (≥75% = ++++)"}, {"substance": "69 (FQLDPSSGVLVTV; listed as Homo sapiens) [compound 69]", "Peptide exchange (MHC class I binding score, peptide exchange yield)": "“+++” (≥50 = +++)"}, {"substance": "70 (GLLDYPVGV; listed as Homo sapiens) [compound 70]", "Peptide exchange (MHC class I binding score, peptide exchange yield)": "“+++” (≥50 = +++)"}, {"substance": "71 (GILARIASV; listed as Homo sapiens) [compound 71]", "Peptide exchange (MHC class I binding score, peptide exchange yield)": "“+++” (≥50 = +++)"}, {"substance": "72 (SLLELDGINL; listed as Homo sapiens) [compound 72]", "Peptide exchange (MHC class I binding score, peptide exchange yield)": "“+++” (≥50 = +++)"}, {"substance": "73 (NIFDLQIYV; listed as Homo sapiens) [compound 73]", "Peptide exchange (MHC class I binding score, peptide exchange yield)": "“+++” (≥50 = +++)"}, {"substance": "74 (ALLDPEVLSIFV; listed as Homo sapiens) [compound 74]", "Peptide exchange (MHC class I binding score, peptide exchange yield)": "“+++” (≥50 = +++)"}, {"substance": "75 (GLLEVMVNL; listed as Homo sapiens) [compound 75]", "Peptide exchange (MHC class I binding score, peptide exchange yield)": "“+++” (≥50 = +++)"}, {"substance": "76 (ILIDSIYKV; listed as Homo sapiens) [compound 76]", "Peptide exchange (MHC class I binding score, peptide exchange yield)": "“+++” (≥50 = +++)"}, {"substance": "77 (ILVEADGAWVV; listed as Homo sapiens) [compound 77]", "Peptide exchange (MHC class I binding score, peptide exchange yield)": "“++++” (≥75% = ++++)"}, {"substance": "78 (SLFSSLEPQIQPV; listed as Homo sapiens) [compound 78]", "Peptide exchange (MHC class I binding score, peptide exchange yield)": "“+++” (≥50 = +++)"}, {"substance": "79 (SLFIGEKAVLL; listed as Homo sapiens) [compound 79]", "Peptide exchange (MHC class I binding score, peptide exchange yield)": "“+++” (≥50 = +++)"}, {"substance": "80 (FLYDNLVESL; listed as Homo sapiens) [compound 80]", "Peptide exchange (MHC class I binding score, peptide exchange yield)": "“++” (≥20% = ++)"}, {"substance": "81 (FLFSQLQYL; listed as Homo sapiens) [compound 81]", "Peptide exchange (MHC class I binding score, peptide exchange yield)": "“++” (≥20% = ++)"}, {"substance": "82 (FLSSVTYNL; listed as Homo sapiens) [compound 82]", "Peptide exchange (MHC class I binding score, peptide exchange yield)": "“+++” (≥50 = +++)"}, {"substance": "83 (ILAPTVMMI; listed as Homo sapiens) [compound 83]", "Peptide exchange (MHC class I binding score, peptide exchange yield)": "“+++” (≥50 = +++)"}, {"substance": "84 (VTFGEKLLGV; listed as Homo sapiens) [compound 84]", "Peptide exchange (MHC class I binding score, peptide exchange yield)": "“++” (≥20% = ++)"}, {"substance": "85 (KMSELRVTL; listed as Homo sapiens) [compound 85]", "Peptide exchange (MHC class I binding score, peptide exchange yield)": "“+++” (≥50 = +++)"}, {"substance": "86 (NLIGKIENV; listed as Homo sapiens) [compound 86]", "Peptide exchange (MHC class I binding score, peptide exchange yield)": "“+++” (≥50 = +++)"}, {"substance": "87 (ALPEAPAPLLPHIT; listed as Homo sapiens) [compound 87]", "Peptide exchange (MHC class I binding score, peptide exchange yield)": "“++” (≥20% = ++)"}, {"substance": "88 (FLLVGDLMAV; listed as Homo sapiens) [compound 88]", "Peptide exchange (MHC class I binding score, peptide exchange yield)": "“+++” (≥50 = +++)"}, {"substance": "89 (YILPTETIYV; listed as Homo sapiens) [compound 89]", "Peptide exchange (MHC class I binding score, peptide exchange yield)": "“++++” (≥75% = ++++)"}, {"substance": "90 (TLLQIIETV; listed as Homo sapiens) [compound 90]", "Peptide exchange (MHC class I binding score, peptide exchange yield)": "“+++” (≥50 = +++)"}, {"substance": "91 (IMQDFPAEIFL; listed as Homo sapiens) [compound 91]", "Peptide exchange (MHC class I binding score, peptide exchange yield)": "“++++” (≥75% = ++++)"}, {"substance": "92 (YLIPFTGIVGL; listed as Homo sapiens) [compound 92]", "Peptide exchange (MHC class I binding score, peptide exchange yield)": "“++” (≥20% = ++)"}, {"substance": "93 (LLQAIKLYL; listed as Homo sapiens) [compound 93]", "Peptide exchange (MHC class I binding score, peptide exchange yield)": "“++” (≥20% = ++)"}, {"substance": "94 (YLIDIKTIAI; listed as Homo sapiens) [compound 94]", "Peptide exchange (MHC class I binding score, peptide exchange yield)": "“++” (≥20% = ++)"}, {"substance": "95 (SVIPQIQKV; listed as Homo sapiens) [compound 95]", "Peptide exchange (MHC class I binding score, peptide exchange yield)": "“+++” (≥50 = +++)"}, {"substance": "96 (YIFTDNPAAV; listed as Homo sapiens) [compound 96]", "Peptide exchange (MHC class I binding score, peptide exchange yield)": "“+++” (≥50 = +++)"}, {"substance": "97 (SLINGSFLV; listed as Homo sapiens) [compound 97]", "Peptide exchange (MHC class I binding score, peptide exchange yield)": "“+++” (≥50 = +++)"}, {"substance": "98 (LIIDQADIYL; listed as Homo sapiens) [compound 98]", "Peptide exchange (MHC class I binding score, peptide exchange yield)": "“+++” (≥50 = +++)"}, {"substance": "99 (ALVSKGLATV; listed as Homo sapiens) [compound 99]", "Peptide exchange (MHC class I binding score, peptide exchange yield)": "“++” (≥20% = ++)"}, {"substance": "100 (YLLSTNAQL; listed as Homo sapiens) [compound 100]", "Peptide exchange (MHC class I binding score, peptide exchange yield)": "“++++” (≥75% = ++++)"}, {"substance": "101 (ILVGGGALATV; listed as Homo sapiens) [compound 101]", "Peptide exchange (MHC class I binding score, peptide exchange yield)": "“+++” (≥50 = +++)"}, {"substance": "102 (YLFESEGLVL; listed as Homo sapiens) [compound 102]", "Peptide exchange (MHC class I binding score, peptide exchange yield)": "“+++” (≥50 = +++)"}, {"substance": "103 (TLAEEVVAL; listed as Homo sapiens) [compound 103]", "Peptide exchange (MHC class I binding score, peptide exchange yield)": "“+++” (≥50 = +++)"}, {"substance": "104 (STMEQNFLL; listed as Homo sapiens) [compound 104]", "Peptide exchange (MHC class I binding score, peptide exchange yield)": "“++++” (≥75% = ++++)"}, {"substance": "106 (LLYDAVHIVSV; listed as Homo sapiens) [compound 106]", "Peptide exchange (MHC class I binding score, peptide exchange yield)": "“+++” (≥50 = +++)"}, {"substance": "107 (FLQPVDDTQHL; listed as Homo sapiens) [compound 107]", "Peptide exchange (MHC class I binding score, peptide exchange yield)": "“+++” (≥50 = +++)"}, {"substance": "108 (ALFPGVALLLA; listed as Homo sapiens) [compound 108]", "Peptide exchange (MHC class I binding score, peptide exchange yield)": "“++++” (≥75% = ++++)"}, {"substance": "109 (IILSILEQA; listed as Homo sapiens) [compound 109]", "Peptide exchange (MHC class I binding score, peptide exchange yield)": "“++++” (≥75% = ++++)"}, {"substance": "110 (FLSQVDFEL; listed as Homo sapiens) [compound 110]", "Peptide exchange (MHC class I binding score, peptide exchange yield)": "“+++” (≥50 = +++)"}, {"substance": "111 (YVWGFYPAEV; listed as Homo sapiens) [compound 111]", "Peptide exchange (MHC class I binding score, peptide exchange yield)": "“+++” (≥50 = +++)"}, {"substance": "113 (GLLPTPLFGV; listed as Homo sapiens) [compound 113]", "Peptide exchange (MHC class I binding score, peptide exchange yield)": "“+++” (≥50 = +++)"}, {"substance": "114 (SLVGEPILQNV; listed as Homo sapiens) [compound 114]", "Peptide exchange (MHC class I binding score, peptide exchange yield)": "“++” (≥20% = ++)"}, {"substance": "115 (AIAGAGILYGV; listed as Homo sapiens) [compound 115]", "Peptide exchange (MHC class I binding score, peptide exchange yield)": "“++” (≥20% = ++)"}, {"substance": "116 (YHIDEEVGF; listed as Homo sapiens) [compound 116]", "Peptide exchange (MHC class I binding score, peptide exchange yield)": "“+” (≥10% = +)"}, {"substance": "117 (ILPDGEDFLAV; listed as Homo sapiens) [compound 117]", "Peptide exchange (MHC class I binding score, peptide exchange yield)": "“+++” (≥50 = +++)"}, {"substance": "118 (KLIDNNINV; listed as Homo sapiens) [compound 118]", "Peptide exchange (MHC class I binding score, peptide exchange yield)": "“+++” (≥50 = +++)"}, {"substance": "119 (FLYIGDIVSL; listed as Homo sapiens) [compound 119]", "Peptide exchange (MHC class I binding score, peptide exchange yield)": "“++++” (≥75% = ++++)"}]}]}
